Assay results: patent US20160215048A1 (published 2016)

Columns and labels:
IL-18/IL-18BP complex [1] = target: T1, IL-18/IL-18BP complex (human, UniProt Q14116 37-193); assay: Luminex; mAb on IL-18 complexed to bead-linked IL-18BP
T1 construct: Complex of IL-18 with IL-18BP; in the third Luminex screening step IL-18BP was linked to the beads and then complexed to IL-18; Stoichiometry 1:1 is only cited from the literature; also called IL-18 previously complexed to IL-18BP; complex IL-18/IL-18BP
T1 sequence 1: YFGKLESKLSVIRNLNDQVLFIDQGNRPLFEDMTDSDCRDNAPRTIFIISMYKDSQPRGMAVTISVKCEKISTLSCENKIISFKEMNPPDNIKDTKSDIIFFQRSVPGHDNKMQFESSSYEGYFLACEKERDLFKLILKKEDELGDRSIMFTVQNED
T1 sequence 2: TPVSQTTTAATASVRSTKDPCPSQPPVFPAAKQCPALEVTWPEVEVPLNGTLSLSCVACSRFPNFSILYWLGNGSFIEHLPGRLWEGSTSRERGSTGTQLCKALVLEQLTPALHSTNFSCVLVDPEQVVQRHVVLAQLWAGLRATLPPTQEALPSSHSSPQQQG

recombinant human IL-18 [2] = target: T2, recombinant human IL-18 (human, UniProt Q14116 37-193); assay: Luminex; mAb on IL-18 beads
T2 construct: Commercial recombinant human IL-18; In the Luminex screening it was attached to beads; also called Interleukin-18; human interleukin-18
T2 sequence (looked up): T1 sequence 1

recombinant human IL-18 [3] = target: T2, recombinant human IL-18; assay: Luminex; biotinylated IL-18BP (competitor) on IL-18 beads pre-bound with the mAb; the signal is IL-18BP binding
IL-18/IL-18BP complex [4] = target: T1, IL-18/IL-18BP complex; assay: Luminex third screening against first screening

B1: Antibody 111A6 (antibody, V domains shown)
VH: EVQLQQSGAELVKPGASVKLSCTASGFKIKDTYIHWVIQRPAQGLEWIGRIDPANGNTIYGSKFQGKATLTADTSSNTAYIHLSSLTSGDSAVYYCAGYVWFAYWGQGTLVTVSA
VL: DVVMTQVPLSLPVSLGDQASISCRSSQRLVHSNGNTYLHWFLQKPGQSPKLLIYTVSNRFSGVPDRFSGSGSGTDFTLKISRVEAEDLGVYFCSQSTLVPWTFGGGTKLEIK
With B1 as the binder, how does the Fluorescence intensity (IL-18/IL-18BP complex [1]) read?
The Fluorescence intensity was 42 fluorescence intensity.

What about the Fluorescence intensity (recombinant human IL-18 [2]) of the same binder?
The Fluorescence intensity was 25900 fluorescence intensity.

And the “Fluorescence intensity (IL-18BP binding on IL-18 previously complexed to monoclonal antibody)” value (recombinant human IL-18 [3])?
Its value is 1400 fluorescence intensity.

B2: Antibody 131E8 (antibody)
chain 1: QVQLKQSRPGPVQPSQSLSITCTVSGFSLPNYGVHWVRQPPGKGLEWLGVIWSGGSTDYNAAFKSRLSISKDNSKSQVFFKMNSLQADDTAIYYCARNFYSKYDYAMDYWGQGTSVTVSS
chain 2: QVQLQQPGSVLVRPGASVKLSCKASGYTFTSYWMHWVKQRPGQGLEWIGNINPNSGSTNYNEKFKGKATLTVDTSSSTAYMDLSSLTSEDSAVYYCARLGDYWGQGTTLTVSS
chain 3: ENVLTQSPAIMSASPGEKVTMTCSASSSVSYMHWYQQKSSTSPKLWIYDTSKLASGVPGRFSGSGSGNSYSLTISSMEAEDVATYYCFQGSGYPLTFGSGTKLEIK
For B2, which “fold inhibition of binding to IL-18 complexed to IL-18BP against binding to IL-18 alone” value (IL-18/IL-18BP complex [4]) is on record?
Its value is > 500 fold.

What about the Fluorescence intensity (IL-18/IL-18BP complex [1]) of the same binder?
The Fluorescence intensity was 36 fluorescence intensity.

What about the Fluorescence intensity (recombinant human IL-18 [2]) of the same binder?
Its Fluorescence intensity is 25400 fluorescence intensity.

And the “Fluorescence intensity (IL-18BP binding on IL-18 previously complexed to monoclonal antibody)” value (recombinant human IL-18 [3])?
Its value is 1390 fluorescence intensity.
